Measurements taken from US20220228157A1, “GENE EDITING IN DIVERSE BACTERIA” (priority 2019, published 2022).

Legend:
[1] = test system: 90 bp oligos pre-coated with SSB; test: Oligonucleotide annealing and quenching in vitro; format: biochemical; settings: two 90 bp oligos pre-coated with SSB
Source text: It was first whether two 90 bp oligos could anneal if they were pre-coated with SSB. SSBs was purified from E. coli (gram-negative), where most recombineering work has been performed, and L. lactis (gram-positive), a lactic acid bacterium phylogenetically distantly related to E. coli. […] It was next tested capacity of a phage RecT protein to overcome this SSB-mediated inhibition of annealing. Thus, Redβ, which is not broadly portable, but mediates efficient oligonucleotide annealing in E. coli, was purified. […] These preliminary results gave us an indication that while bacterial SSBs inhibit oligonucleotide annealing in vitro, RecTs overcome the inhibitory effect in an SSB-specific manner.
Fluorescent (tolC-r.null.mut-3′FAM) and quenching (tolC-f.null.mut-5′IBFQ) oligos were ordered from Integrated DNA Technologies. Unless otherwise indicated, 50 nM of each oligo was incubated in 25 mM TRIS-HCl pH 7.4 with 1.0 μM Ec_SSB or Ll_SSB at 30° C. for 30 minutes. 100 μl of each oligo mixture were then combined into a 96-well clear-bottom black assay plate (Costar), incubated a further 60 minutes at 30° C., and annealing was tracked on a Synergy H4 microplate reader (BioTek) with fluorescence excitation set to 495 nm and emission set to 520 nm. After 60 minutes, 20 μl of a solution with or without 25 μM Redβ and containing 100 mM MgCl2 was added to achieve a final reaction concentration of 2.5 μM Redβ and 10 mM MgCl2. The annealing was then tracked over 10 hours in a the Synergy H4 microplate reader with the setting indicated above.

[2] = biological target: L. lactis single-stranded binding protein (LlSSB) (L. lactis) (UniProt Q9CDM9); test: cell-based or functional assay
[3] = biological target: PaSSB (Pseudomonas aeruginosa single-stranded binding protein) (Pseudomonas aeruginosa) (UniProt P40947); test: cell-based or functional assay; settings: scale: fold improved over the RecT protein alone
[4] = test system: Staphylococcus aureus; test: SSAP candidate enrichment; format: cell-based
Method: (§1) The editing efficiency of SSAP candidates was also tested in Agrobacterium tumefaciens and in Staphylococcus aureus using the methods described above.

[5] = test system: Agrobacterium tumefaciens; test: SSAP candidate enrichment; format: cell-based
Method: as §1

[6] = test system: E. coli; test: Allelic recombination frequency, selective vs non-selective plates; format: cell-based, Escherichia coli; settings: RecT alone
Method: (§2) Four variants known to enable high genome editing efficiency were selected (Redβ and PapRecT in E. coli, LrpRecT in L. lactis, and MspRecT in M. smegmatis), and tested codon optimized versions of all four in both E. coli (gram-negative), and L. lactis (gram-positive). Genome editing efficiency was measured by introducing oligos encoding known antibiotic resistance mutations, and compared the antibiotic resistant cell counts to the total number of viable cells in the population (FIGS. 17E-17F). […] In L. lactis, LrpRecT was the only functional homolog, and improved oligo incorporation 7,700-fold, while the three other RecT variants were nearly non-functional, improving oligo incorporation less than 7-fold (FIG. 17H). No RecT protein functioned well both in E. coli and L. lactis.
A single colony of E. coli was grown overnight to saturation. In the morning 30 μL of dense culture was inoculated into 3 mL of fresh media and grown for 1 hour. To induce gene expression of the pARC8 vector for recombineering experiments, L-arabinose was added to a final concentration of 0.2% (w/v) and the cells were grown an additional hour. 1 mL of cells were pelleted at 4° C. by centrifugation at 12,000×g for 2.5 minutes and washed twice with 1 mL of ice-cold dH2O. Cells were resuspended in 50 μL ice-cold dH2O containing DNA and transferred to a pre-chilled 0.1 cm electroporation cuvette.
(§3) Electrocompetent cells were electroporated with 90-mer oligos at: 1 uM for E. coli, 50 μg for L. lactis, and 10 uM for C. crescentus. 70-mer oligos were used at 1 μg for M. smegmatis. All oligos were obtained from IDT and can be found under “Oligonucleotides for genome editing” in materials and methods. For dsDNA experiments L. lactis was electroporated with 1.5 μg purified linear dsDNA. Cells were electroporated using a Bio-Rad gene pulser set to 25 μF, 200 S2, and 1.8 kV for E. coli, 2.0 kV for L. lactis, and 1.5 kV for C. crescentus and to 1000Ω and 2.5 kV for M. smegmatis. Immediately after electroporation, cells were recovered in fresh media for 3 hours for E. coli, 1 hour for L. lactis, overnight for M. smegmatis and overnight for C. crescentus. L. lactis recovery media was supplemented with MgCl2 and CaCl2) at a concentration of 20 mM and 2 mM, respectively. E. coli recovery media was supplemented with carbenicillin. M. smegmatis recovery media was supplemented with hygromycin. C. crescentus recovery media was supplemented with 0.3% xylose and kanamycin. After recovery, the cells were serial diluted and plated on non-selective vs. selective agar plates to obtain approximately 50-500 CFU/plate. Colonies were counted using a custom script in Fiji, and allelic recombination frequency was calculated by dividing the number of colonies on selective plates, with the number of colonies on non-selective plates.

[7] = test system: L. rhamnosus; format: cell-based
Method: Finally, the model for RecT was used to establish recombineering in L. rhamnosus, a well-studied probiotic used to treat a variety of illnesses including diarrhea and bacterial vaginosis. Although the L. rhamnosus SSB and L. lactis SSB only have 47% identity, they share identical SSB C-terminal tail 7 amino acids. It was determined whether LrpRecT (which functions in L. lactis) is portable to L. rhamnosus, while the other RecT proteins would not be functional.

[8] = test system: L. lactis; test: Allelic recombination frequency, selective vs non-selective plates; format: cell-based, Lactococcus lactis; settings: RecT alone
Method: as §2
A single colony of L. lactis was grown overnight to saturation. 500 μL of dense culture was inoculated into 5 mL of fresh media, supplemented with 500 mM sucrose and 2.5% (w/v) glycine, and grown for 3 hours. To induce gene expression of the pJP005 vector for recombineering experiments, the cells were grown for an additional 30 min after adding 1 ng/mL freshly diluted nisin, unless stated otherwise. For the optimized condition (FIG. 20B), 10 ng/mL nisin was used. Cells were pelleted at 4° C. by centrifugation at 5,000×g for 5 minutes and washed twice with 2 mL of ice-cold electroporation buffer (500 mM sucrose containing 10% (w/v) glycerol) by centrifugation at 13,200×g for 2.5 minutes. Cells were resuspended in 80 μL ice-cold electroporation buffer containing DNA and transferred to a pre-chilled 0.1 cm electroporation cuvette.
as §3

EcSSB: single-stranded binding protein from E. coli [reference compound]
Effect of SSB on oligonucleotide annealing [1]: completely inhibited oligonucleotide annealing

PapRecT
genome editing efficiency in L. lactis (fold less than the cognate pair) [2]: 135 | editing efficiency in L. lactis, pair against the RecT protein alone [3]: 1170

MspRecT
genome editing efficiency in L. lactis (fold lower than the cognate pair) [2]: 33

B1: SR063: SSAP candidate (protein)
chain: MHLIHQSGEVKMQLSPETNEILPALFNARNKFAKAKKDAKNNHLKNSYATLDAMMAAVSPALTDNDIMILQSMLDTSTETTFHLETMLIHKSGQWAKFFMMMPIAKRDPQGVGSAMTYARRYSLAAALGISQSDDDAQLAVKSVKDWKKELDACEDIESLKDVWANAYRQTDTASKSIIQDHYNALKAKFEIGKARGIRPAQPEQKKQVEATSAKPVQSQSITNFE
modifications: Bacteriophage T1
notes: SSAP candidate
Editing efficiency (enrichment) relative to other SSAP candidates [4]: increase in editing efficiency

B2: PF071: SSAP candidate (protein)
chain: MALTPGLVTLNHAKIMSNESTDKLDLPQAPVPKKTLYEIVMSEDVKTHITQFVEGMMTPERCISIFWNCCQKTPLLQQCAPITLISSLKNLLLMRCEPDGIHGYLVPFWVNDKRTGNSILTCAPVPSARGLMRMARSNGVTNLNIGIVREGEPFSWRLDDGKFTMGHIPGWGDNEDPIRGFYCTWTDKDSYLHGERMSLKAVEEIKGRSKSKNKKGEIVGPWVTDFGQMGLKTVIKRASKQWDLPLVIQAAMQAADDQEFEGNMRNVTPEKTDGPAEGETPWNNAPAPEAFQNDQPEALPEPKPEGQDDLIPGLKMPAPKETATVNMEDY
modifications: Akkermansia sp KLE1798
notes: SSAP candidate
Editing efficiency (enrichment) relative to other SSAP candidates [5]: increase in editing efficiency

B3: MspRecT: RecT variant known to enable high genome editing efficiency in M. smegmatis (protein)
chain: MAENAVTKQDSPKAPETISQVLQVLVPQLARAVPKGMDPDRIARIVQTEIRKSRNAKAAGIAKQSLDDCTQESFAGALLTSAALGLEPGVNGECYLVPYRDTRRGVVECQLIIGYQGIVKLFWQHPRASRIDAQWVGANDEFHYTMGLNPTLKHVKAKGDRGNPVYFYAIVEVTGAEPLWDVFTADEIRELRRGKVGSSGDIKDPQRWMERKTALKQVLKLAPKTTRLDAAIRADDRPGTDLSQSQALALPSTVKPTADYIDGEIAEPHEVDTPPKSSRAQRAQRATAPAPDVQMANPDQLKRLGEIQKAEKYNDADWFKFLADSAGVKATRAADLTFDEAKAVIDMFDGPNA
Improvement of oligo incorporation [6]: 290 fold | Toxicity in L. rhamnosus [7]: toxic

B4: LrpRecT: RecT variant known to enable high genome editing efficiency in L. lactis (protein)
chain: MANQVAQQQKPTKLTDLVLDRVKQMQDTQDLSLPKNYNASNALNAAFLELQKVQDRNHRPALEVCSHDSIVKSLLDMTLQGLSPAKDQCYFIVYGNELQMQRSYFGTVAAVKRLDGVKKVRAEVVHEKDDFEIGANEDMELVVKRFVPKFENQDNQIIGAFAMIKTDEGTDFTVMTKKEIDQSWAQTRQKNNKVQQNFSQEMAKRTVLNRAAKMFINTSDDSDLLTGAINDTTSNEYDDERRDVTPVEDEKQSTDKLLEGFQKSQEAKAKWVSNDGNSNEGKETSEEVADGQTELFSEGTIKPADEADS
Improvement of oligo incorporation [6]: 5.6 fold | Improvement of oligo incorporation [8]: 7,700 fold | Oligonucleotide incorporation ([7]; L. rhamnosus): three orders of magnitude above the background level

B5: N003: SSAP candidate (protein, listed as Escherichia coli)
chain: MTKQPPIAKADLQKTQGNRAPAAVKNSDVISFINQPSMKEQLAAALPRHMTAERMIRIATTEIRKVPALGNCDTMSFVSAIVQCSQLGLEPGSALGHAYLLPFGNKNEKSGKKNVQLIIGYRGMIDLARRSGQIASLSARVVREGDEFSFEFGLDEKLIHRPGENEDAPVTHVYAVARLKDGGTQFEVMTRKQIELVRSLSKAGNNGPWVTHWEEMAKKTAIRRLFKYLPVSIEIQRAVSMDEKEPLTIDPADSSVLTGEYSVIDNSEE
Editing efficiency (enrichment) relative to other SSAP candidates [5]: increase in editing efficiency

B6: PF076: SSAP candidate (protein)
chain: MTGPELAAAAKQTAQQAGSATVKKFFEANRGTLEALLPRHFDSERMLKLALGALRTTPKLANASLSSLLGSVVTCAQLGLEPNTPLGHAYLLPFDKREKQNGQWVTVETQVQVIIGYKGMLDLARRSGQIVSIAAHEVCQNDEFVFAYGLNEELVHRPAMKDRGPVIGFYAVAKLTGGGYSFEFMSVDEVNHIRDKAAEKNRAKRDAAGNPIITGPWADNYVEMGRKTVLRRLFKYLPISIESLAFASAVDGQAIREPAPLEQVAFESSEPAEEPTSYDQQDEDLRALEQSQPARVPPVQVEQPAEAWQPSAEEAAELERQQAAEAAADQQRASAPRGRGQRSMSLE
modifications: Methyloversatilis universalis (strain ATCC BAA-1314 / JCM 13912 /FAM5)
notes: SSAP candidate
Editing efficiency (enrichment) relative to other SSAP candidates [5]: increase in editing efficiency

B7: L1SSB: single-stranded binding protein from L. lactis (protein)
chain: MINNVVLVGRITRDPELRYTPQNQAVATFSLAVNRQFKNANGEREADFINCVIWRQQAENLANWAKKGALIGVTGRIQTRNYENQQGQRVYVTEVVADSFQMLESRSARDGMGGGASAGSYSAPSQSTNNTPRPQTNNNSATPNFGRDADPFGSSPMEISDDDLPF
Effect of SSB on oligonucleotide annealing [1]: completely inhibited oligonucleotide annealing

B8: PF074: SSAP candidate (protein, listed as Rhizobium loti)
chain: MMNAITTYTHSPRQLALIQKTVAKDCNTDEFNLFVEVARAKGLDPFLGQIIPMIFSKGDSNKRKMTIIISRDGQRVIAQRCGDYRPASKPPSYEFDAELKSETNPQGIVSATVYLWKQDAKTAAWFEVAGQSYWDEFAPISYPYDAYKMVDTGETWEDSGKPKKKRVLRDGATPQLDDSGNWCRMPRLMIAKCAEMQALRAGWPEQFTGLYDEAEMDRAKVLEMAASEIVAHEQEENRLRLVAGNDAITMSWGDGWALENVPAGEFMDRCLAFIRESDHQTVVKWNSANRAGLQLFWAKHPGDALELKKAIEKASRAPVEIDHIADAARREIAQHPVSAG
Editing efficiency (enrichment) relative to other SSAP candidates [5]: increase in editing efficiency
